US11325966

What was measured:
Experiment in all cases: cell-based or functional assay
[1] = target: HIV-1 envelope (Env) of pseudovirus 6535.3 (HIV-1)
[2] = target: HIV-1 envelope (Env) of pseudovirus 3365.v2.c2 (HIV-1)
[3] = target: HIV-1 envelope (Env) of pseudovirus REJO4541.67 (HIV-1)
[4] = target: HIV-1 envelope (Env) of pseudovirus 1012_11_TC21_3257 (HIV-1)
[5] = target: HIV-1 envelope (Env) of pseudovirus ZM109F.PB4 (HIV-1)
[6] = target: HIV-1 envelope (Env) of pseudovirus 235-47 (HIV-1)
[7] = target: HIV-1 envelope (Env) of pseudovirus ZM249M.PL1 (HIV-1)
[8] = target: HIV-1 envelope (Env) of pseudovirus Ce0682_E4 (HIV-1)
[9] = target: HIV-1 envelope (Env) of pseudovirus CNE20 (HIV-1)
[10] = target: HIV-1 envelope (Env) of pseudovirus X2131_C1_B5 (HIV-1)
[11] = target: HIV-1 envelope (Env) of pseudovirus BJOX028000.10.3 (HIV-1)
[12] = target: HIV-1 envelope (Env) of pseudovirus HIV-0013095-2.11 (HIV-1)
[13] = target: HIV-1 envelope (Env) of pseudovirus SC422661.8 (HIV-1)
[14] = target: HIV-1 envelope (Env) of pseudovirus 249M B10 (HIV-1)
[15] = target: HIV-1 envelope (Env) of pseudovirus YU2_N332K (HIV-1) (UniProt P35961)
[16] = target: HIV-1 envelope (Env) of pseudovirus THRO4156.18 (HIV-1)
[17] = target: HIV-1 envelope (Env) of pseudovirus Ce704809221_1B3 (HIV-1)
[18] = target: HIV-1 envelope (Env) of pseudovirus A07412M1.vrc12 (HIV-1)
[19] = target: HIV-1 envelope (Env) of pseudovirus CNE5 (HIV-1)
[20] = target: HIV-1 envelope (Env) of pseudovirus Ce0393_C3 (HIV-1)
[21] = target: HIV-1 envelope (Env) of pseudovirus WEAU_d15_410_787 (HIV-1)
[22] = target: HIV-1 envelope (Env) of pseudovirus 191084 B7-19 (HIV-1)
[23] = target: HIV-1 envelope (Env) of pseudovirus CNE21 (HIV-1)
[24] = target: HIV-1 envelope (Env) of pseudovirus Du422.1 (HIV-1)
[25] = target: HIV-1 envelope (Env) of pseudovirus C4118.c09 (HIV-1)
[26] = target: HIV-1 envelope (Env) of pseudovirus TRO.11 (HIV-1)
[27] = target: HIV-1 envelope (Env) of pseudovirus HIV-16845-2.22 (HIV-1)
[28] = target: HIV-1 envelope (Env) of pseudovirus 89-F1_2_25 (HIV-1)
[29] = target: HIV-1 envelope (Env) of pseudovirus 6244_13_B5_4576 (HIV-1)
[30] = target: HIV-1 envelope (Env) of pseudovirus MS208.A1 (HIV-1)
[31] = target: HIV-1 envelope (Env) of pseudovirus 191955_A11 (HIV-1)
[32] = target: HIV-1 envelope (Env) of pseudovirus X1254_c3 (HIV-1)
[33] = target: HIV-1 envelope (Env) of pseudovirus R2184.c04 (HIV-1)
JR-CSF N362A (HIV-1) = JR-CSF N362A (HIV-1) (UniProt P20871)
BG505 (T332N) (HIV-1) = target: BG505 (T332N) (HIV-1)
JR-CSF N301A (HIV-1) = JR-CSF N301A (HIV-1) (UniProt P20871)
[34] = target: HIV-1 Env of pseudovirus BG505/T332N (HIV-1)
[35] = target: HIV-1 YU2 Env N160K, on pseudovirus (HIV-1) (UniProt P35961)

BG1 (antibody)
IC50 in TZM-bl assay [1]: 0.322 µg/mL
IC80 in TZM-bl assay [1]: 1.13 µg/mL
IC50 in TZM-bl assay [2]: 1.16 µg/mL
IC80 in TZM-bl assay [2]: 4.27 µg/mL
IC50 in TZM-bl assay [3]: 0.342 µg/mL
IC80 in TZM-bl assay [3]: 1.66 µg/mL
IC50 in TZM-bl assay [4]: > 30 µg/mL
IC80 in TZM-bl assay [4]: > 30 µg/mL
IC50 in TZM-bl assay [5]: > 30 µg/mL
IC80 in TZM-bl assay [5]: > 30 µg/mL
IC50 in TZM-bl assay [6]: 1.27 µg/mL
IC80 in TZM-bl assay [6]: 4.38 µg/mL
IC50 in TZM-bl assay [7]: 1.22 µg/mL
IC80 in TZM-bl assay [7]: 6.79 µg/mL
IC50 in TZM-bl assay [8]: > 30 µg/mL
IC80 in TZM-bl assay [8]: > 30 µg/mL
IC50 in TZM-bl assay [9]: 4.26 µg/mL
IC80 in TZM-bl assay [9]: > 30 µg/mL
IC50 in TZM-bl assay [10]: 0.116 µg/mL
IC80 in TZM-bl assay [10]: 0.313 µg/mL
IC50 in TZM-bl assay [11]: > 30 µg/mL
IC80 in TZM-bl assay [11]: > 30 µg/mL
IC50 in TZM-bl assay [12]: > 30 µg/mL
IC80 in TZM-bl assay [12]: > 30 µg/mL
IC50 in TZM-bl assay [13]: > 30 µg/mL
IC80 in TZM-bl assay [13]: > 30 µg/mL
IC50 in TZM-bl assay [14]: 1.47 µg/mL
IC80 in TZM-bl assay [14]: 5.45 µg/mL
IC50 in TZM-bl assay [15]: 19.4 µg/mL
IC80 in TZM-bl assay [15]: > 30 µg/mL
IC50 in TZM-bl assay [16]: > 30 µg/mL
IC80 in TZM-bl assay [16]: > 30 µg/mL
IC50 in TZM-bl assay [17]: 3.25 µg/mL
IC80 in TZM-bl assay [17]: 18.5 µg/mL
IC50 in TZM-bl assay [18]: > 30 µg/mL
IC80 in TZM-bl assay [18]: > 30 µg/mL
IC50 in TZM-bl assay [19]: 0.351 µg/mL
IC80 in TZM-bl assay [19]: 1.28 µg/mL
IC50 in TZM-bl assay [20]: > 30 µg/mL
IC80 in TZM-bl assay [20]: > 30 µg/mL
IC50 in TZM-bl assay [21]: > 30 µg/mL
IC80 in TZM-bl assay [21]: > 30 µg/mL
IC50 in TZM-bl assay [22]: > 30 µg/mL
IC80 in TZM-bl assay [22]: > 30 µg/mL
IC50 in TZM-bl assay [23]: > 30 µg/mL
IC80 in TZM-bl assay [23]: > 30 µg/mL
IC50 in TZM-bl assay [24]: 1.8 µg/mL
IC80 in TZM-bl assay [24]: 13.7 µg/mL
IC50 in TZM-bl assay [25]: 22.8 µg/mL
IC80 in TZM-bl assay [25]: > 30 µg/mL
IC50 in TZM-bl assay [26]: > 30 µg/mL
IC80 in TZM-bl assay [26]: > 30 µg/mL
IC50 in TZM-bl assay [27]: > 30 µg/mL
IC80 in TZM-bl assay [27]: > 30 µg/mL
IC50 in TZM-bl assay [28]: > 30 µg/mL
IC80 in TZM-bl assay [28]: > 30 µg/mL
IC50 in TZM-bl assay [29]: > 30 µg/mL
IC80 in TZM-bl assay [29]: > 30 µg/mL
IC50 in TZM-bl assay [30]: 1.48 µg/mL
IC80 in TZM-bl assay [30]: 6.54 µg/mL
IC50 in TZM-bl assay [31]: 0.008 µg/mL
IC80 in TZM-bl assay [31]: 0.018 µg/mL
IC50 in TZM-bl assay [32]: 0.048 µg/mL
IC80 in TZM-bl assay [32]: 0.086 µg/mL
IC50 in TZM-bl assay [33]: > 30 µg/mL
IC80 in TZM-bl assay [33]: > 30 µg/mL

354BG8 (antibody)
IC50 in TZM-bl assay (JR-CSF N362A (HIV-1)): 0.008 µg/mL
IC50 in TZM-bl assay (BG505 (T332N) (HIV-1)): 0.007 µg/mL
IC50 in TZM-bl assay (JR-CSF N301A (HIV-1)): 0.006 µg/mL

BG18 IgG (354BG18) (antibody)
IC50 in TZM-bl assay [34]: < 0.0001 µg/mL
IC80 in TZM-bl assay [34]: 0.002 µg/mL
IC50 in TZM-bl assay [35]: 0.028 µg/mL
IC80 in TZM-bl assay [35]: 0.15 µg/mL
